Assay results reported in patent publication US20250289893A1 (OXFORD UNIVERSITY INNOVATION, published 2025).
Positions count from the first letter of the chain named.

T1: Cynomolgus monkey CD1a protein (Cynomolgus monkey)
T1 chain: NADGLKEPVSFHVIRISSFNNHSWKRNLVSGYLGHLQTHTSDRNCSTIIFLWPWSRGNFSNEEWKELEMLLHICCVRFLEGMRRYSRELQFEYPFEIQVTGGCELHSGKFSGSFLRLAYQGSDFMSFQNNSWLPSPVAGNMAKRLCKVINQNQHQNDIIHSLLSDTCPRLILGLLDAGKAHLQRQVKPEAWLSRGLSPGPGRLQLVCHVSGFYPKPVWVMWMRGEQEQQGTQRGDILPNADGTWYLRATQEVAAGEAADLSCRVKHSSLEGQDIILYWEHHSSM

B1: 110 (VR12112) (antibody, V domains shown)
VH: QSVEESGGRLVTPGTPLTLTCTVSGFSLSSYAMIWVRQAPGKGLEWIGIINSSDNTHYATWAKGRFTISKTSTTVDLKITSPTTEDTATYFCARDPYDYGYGWYFDLWGPGTLVTVSS
VL: AQVLTQTPSPVSAAVGGTVTINCQASQSVFNNKNLAWYQQKPGQPPKLLIYKASTLASGVSSRFKGSGSGTQFALTISGVQCDDAATYYCQGEFSCSSTDCVTFGGGTEVVVK
notes: also called OX110; antibody 110
B2: 77A (VR11851) (antibody, V domains shown)
VH: QSVEESGGRLVTPGTPLTLTCTVSGFSLSSYAMSWVRQAPGKGLEWIGIISSSGTTYYASWAKGRFTISKTSTTVDLKITSPTTEDTATYFCARVDYYSSGWGGLWGPGTLVTVSS
VL: AVEMTQTPASMSAAVGGTVTIKCQASEDIYSNLAWYQQKPGQPPKLLIYGASTLASGVPSRFKGSGSGTEYTLTISGVQCDDAATYYCQCTYDTSSYGNTFGGGTEMVVE
notes: also called OX77a; antibody 77a
B3: 111 (VR12113) (antibody, V domains shown)
VH: QSVEESGGRLVTPGTPLTLTCTASGFSLSTYAMSWVRQAPGKGLEWIGIISSSGSTYYASWAKGRFTISKTSTTVDLKITSPTTEDTATYFCARETWYWLDLWGQGTLVTVSS
VL: B2 VL with M11V, K22N, T91A, T94S, N99T, T100P, M107V, E110K
notes: also called OX111

Legend:
[1] = target: T2, human CD1a protein (pool B) (human, UniProt P06126 18-295, limits assumed); experiment: ELISA, 100 µg/ml antibody
T2 construct: Recombinant protein of the ELISA (coated) and the Biacore T200 titration; whole entry named; also called human CD1a pool B; full length CD1a
T2 sequence (P06126 18-295 limits assumed): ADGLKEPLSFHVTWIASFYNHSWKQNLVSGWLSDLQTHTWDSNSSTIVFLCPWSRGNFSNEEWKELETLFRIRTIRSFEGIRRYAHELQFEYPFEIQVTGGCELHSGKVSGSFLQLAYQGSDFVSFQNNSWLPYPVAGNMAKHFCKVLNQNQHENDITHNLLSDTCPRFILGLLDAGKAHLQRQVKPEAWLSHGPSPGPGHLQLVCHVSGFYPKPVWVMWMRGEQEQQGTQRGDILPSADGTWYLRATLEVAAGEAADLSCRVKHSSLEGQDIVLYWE
Method: (§1) CD1a-specific antibodies were identified by ELISA. […] 20 μl/well of peroxidase-conjugated goat anti-species IgG Fc-specific F(ab′)2 fragment (Jackson ImmunoResearch), diluted 1:5000 in block buffer was added and incubated at room temperature for 1 hour, followed by washing with wash buffer.
(§2) The antibodies were titrated through a dilution series and compared to a control rabbit IgG antibody.

[2] = target: T2, human CD1a protein (pool B); experiment: ELISA, 0.316 µg/ml antibody
Method: as §1, §2

[3] = target: T3, human CD1a expressed on cells (human, UniProt P06126 17-327; P61769 21-119); experiment: flow cytometry, MOLT4 cells, 31.6 µg/ml antibody
T3 construct: also called HEK - CD1a; C1R - CD1a
Method: (§3) CD1a-specific antibodies were identified by flow cytometry. Binding to proteins expressed on HEK, C1R and MOLT4 cell lines was assessed. […] The C1R-CD1a, C1R-empty vector and MOLT4 cell lines were washed in 1×PBS on the day required. All cell lines were counted and resuspended in 1×PBS and then stained for 30 minutes at 37° C. using the DiI or DiO cellular stains (Invitrogen). Cells were washed with flow cytometry buffer (1% bovine serum albumin, 2 mM EDTA and 0.1% sodium azide in PBS) before mixing 2 DiI-stained and DiO-stained populations together. The cells (20 μl/well) were then added to dilutions of antibody sample (B cell culture supernatant, TAP supernatant, clone supernatant, purified antibody solution) (20 μl/well) and incubated for 1 hour at 4° C. in a flow cytometry assay plate, before being washed with flow cytometry buffer. 10 μl/well of Alexafluor647-conjugated goat anti-species IgG Fc-specific F(ab′)2 fragment (Jackson ImmunoResearch), diluted 1:2500 in flow cytometry buffer, was added and incubated at 4° C. for 30 minutes, followed by washing with wash buffer. The fluorescence intensity was then measured on an iQue screener PLUS.
(§4) Binding was quantified as fold change in fluorescence intensity geomean over background assessed by flow cytometry.

[4] = target: T2, human CD1a protein (pool B); experiment: ELISA, 10 µg/ml antibody
Method: as §1, §2

[5] = target: T1, Cynomolgus monkey CD1a protein; experiment: ELISA, 10 µg/ml antibody
[6] = target: T4, chimeric CD1a pool B protein [human CD1a lipid binding domain, mouse CD1d Ig domain] (human; mouse, UniProt P06126 18-201; P11609 205-297, limits assumed); experiment: ELISA, 3.16 µg/ml antibody
T4 sequence (P06126 other isoform, or with tags, fused parts or gaps mutant limits assumed): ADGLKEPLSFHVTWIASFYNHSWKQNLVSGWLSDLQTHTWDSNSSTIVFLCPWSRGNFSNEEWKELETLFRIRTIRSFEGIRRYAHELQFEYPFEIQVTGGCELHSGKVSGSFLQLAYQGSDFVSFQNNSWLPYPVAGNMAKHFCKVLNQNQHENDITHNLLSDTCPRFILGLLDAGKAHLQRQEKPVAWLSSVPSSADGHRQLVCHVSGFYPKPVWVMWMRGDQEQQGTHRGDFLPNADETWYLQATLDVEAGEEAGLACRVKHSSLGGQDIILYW
Method: as §1
(§5) The antibodies were titrated through a dilution series and compared to a control rabbit IgG antibody. […] Data shown for purified antibodies.

[7] = target: T4, chimeric CD1a pool B protein [human …; experiment: ELISA, 0.0316 µg/ml antibody
Method: as §1, §5

[8] = target: T3, human CD1a expressed on cells; experiment: flow cytometry, MOLT4 cells, 0.1 µg/ml antibody
Method: as §3, §4

[9] = target: T3, human CD1a expressed on cells; experiment: flow cytometry, MOLT4 cells, 0.0316 µg/ml antibody
Method: as §3, §4

[10] = target: T3, human CD1a expressed on cells; experiment: flow cytometry, C1R cells, 3.16 µg/ml antibody
Method: (§6) Binding to proteins expressed on HEK, C1R and MOLT4 cell lines was assessed. […] The C1R-CD1a, C1R-empty vector and MOLT4 cell lines were washed in 1×PBS on the day required. All cell lines were counted and resuspended in 1×PBS and then stained for 30 minutes at 37° C. using the DiI or DiO cellular stains (Invitrogen). Cells were washed with flow cytometry buffer (1% bovine serum albumin, 2 mM EDTA and 0.1% sodium azide in PBS) before mixing 2 DiI-stained and DiO-stained populations together. The cells (20 μl/well) were then added to dilutions of antibody sample (B cell culture supernatant, TAP supernatant, clone supernatant, purified antibody solution) (20 μl/well) and incubated for 1 hour at 4° C. in a flow cytometry assay plate, before being washed with flow cytometry buffer. 10 μl/well of Alexafluor647-conjugated goat anti-species IgG Fc-specific F(ab′)2 fragment (Jackson ImmunoResearch), diluted 1:2500 in flow cytometry buffer, was added and incubated at 4° C. for 30 minutes, followed by washing with wash buffer. The fluorescence intensity was then measured on an iQue screener PLUS.
as §4

[11] = target: T3, human CD1a expressed on cells; experiment: flow cytometry, C1R cells, 0.1 µg/ml antibody
Method: as §6, §4

[12] = target: T3, human CD1a expressed on cells; experiment: flow cytometry, MOLT4 cells, 3.16 µg/ml antibody
Method: as §3, §4

[13] = target: T3, human CD1a expressed on cells; experiment: flow cytometry, HEK-293 cells, 100 µg/ml antibody
Method: as §6
(§7) HEK-293 cells were transiently transfected with human CD1a, CD1b, CD1c or CD1d and co-transfected with human β2M.

[14] = target: T5, human CD1d expressed on HEK-293 cells (human, UniProt P15813 20-335; P61769 21-119); experiment: flow cytometry, HEK-293 cells, 100 µg/ml antibody
T5 construct: also called HEK - CD1d
Method: as §6, §7

[15] = target: T6, human CD1c expressed on HEK-293 cells (human, UniProt P29017 18-333; P61769 21-119); experiment: flow cytometry, HEK-293 cells, 100 µg/ml antibody
T6 construct: also called HEK - CD1c
Method: as §6, §7

[16] = target: T7, human CD1b expressed on HEK-293 cells (human, UniProt P29016 18-333; P61769 21-119); experiment: flow cytometry, HEK-293 cells, 100 µg/ml antibody
T7 construct: also called HEK - CD1b
Method: as §6, §7

[17] = target: T4, chimeric CD1a pool B protein [human …; experiment: ELISA, 10 µg/ml antibody
Method: as §1, §5

[18] = target: Cynomolgus monkey CD1a expressed on HEK-293 cells (Cynomolgus monkey, UniProt A0A2K5VQ68 17-326); experiment: flow cytometry, HEK-293 cells, 10 µg/ml antibody
Chain of Cynomolgus monkey CD1a expressed on HEK-293 cells (A0A2K5VQ68 entry or part of it): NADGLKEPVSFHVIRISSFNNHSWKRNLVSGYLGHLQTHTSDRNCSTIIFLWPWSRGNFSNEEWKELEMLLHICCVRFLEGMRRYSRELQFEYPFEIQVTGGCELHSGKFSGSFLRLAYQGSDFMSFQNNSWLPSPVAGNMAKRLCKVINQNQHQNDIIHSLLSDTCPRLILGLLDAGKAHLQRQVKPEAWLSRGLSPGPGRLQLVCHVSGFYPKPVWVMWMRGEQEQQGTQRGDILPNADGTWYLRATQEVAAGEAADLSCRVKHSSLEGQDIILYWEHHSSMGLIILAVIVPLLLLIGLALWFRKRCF
Method: as §6, §4

[19] = target: T4, chimeric CD1a pool B protein [human …; experiment: ELISA, 1 µg/ml antibody
Method: as §1, §5

[20] = target: T1, Cynomolgus monkey CD1a protein; experiment: ELISA, 0.1 µg/ml antibody
[21] = target: T3, human CD1a expressed on cells; experiment: flow cytometry, HEK-293 cells, 0.316 µg/ml antibody
Method: as §6, §7

[22] = target: T5, human CD1d expressed on HEK-293 cells; experiment: as above
Method: as §6, §7

[23] = target: T6, human CD1c expressed on HEK-293 cells; experiment: as above
Method: as §6, §7

[24] = target: T7, human CD1b expressed on HEK-293 cells; experiment: as above
Method: as §6, §7

[25] = target: T2, human CD1a protein (pool B); experiment: ELISA, 1 µg/ml antibody
Method: as §1, §2

| Binder | Optical Density (OD) [1] [OD] | Optical Density (OD) [2] [OD] | Fluorescence Intensity Geomean (normalized to background) [3] [fold over background] | Optical Density (OD) [4] [OD] | Optical Density (OD) [5] [OD] | Optical Density (OD) [6] [OD] | Optical Density (OD) [7] [OD] | Fluorescence Intensity Geomean (normalized to background) [8] [fold over background] | Fluorescence Intensity Geomean (normalized to background) [9] [fold over background] | Fluorescence Intensity Geomean (normalized to background) [10] [fold over background] | Fluorescence Intensity Geomean (normalized to background) [11] [fold over background] | Fluorescence Intensity Geomean (normalized to background) [12] [fold over background] | Fluorescence Intensity Geomean (normalized to background) [13] [fold over background] | Fluorescence Intensity Geomean (normalized to background) [14] [fold over background] | Fluorescence Intensity Geomean (normalized to background) [15] [fold over background] | Fluorescence Intensity Geomean (normalized to background) [16] [fold over background] | Optical Density (OD) [17] [OD] | Fluorescence Intensity Geomean (normalized to background) [18] [fold over background] | Optical Density (OD) [19] [OD] | Optical Density (OD) [20] [OD] | also measured |
| --- | --- | --- | --- | --- | --- | --- | --- | --- | --- | --- | --- | --- | --- | --- | --- | --- | --- | --- | --- | --- | --- |
| B1 | 1.23 | 1.18 | 7.5 | 1.28 | 0.86 | 1.53 | 0.73 | 16.8 | 1.6 | 15.2 | 25.8 | 22.6 | 5.9 | 1.1 | 1 | 1.1 | 1.46 | 13.6 | 1.45 | 0.53 | Fluorescence Intensity Geomean (normalized to background) [21]: 38.3 fold over background; Fluorescence Intensity Geomean (normalized to background) [22]: 1 fold over background; Fluorescence Intensity Geomean (normalized to background) [23]: 0.9 fold over background; Fluorescence Intensity Geomean (normalized to background) [24]: 1 fold over background |
| B2 | 1.39 | 1.39 | 2.2 | 1.34 | 0.52 | 1.28 | 1.09 | 12.4 | 8.7 | 4.2 | 16.4 | 7.4 | 4.1 | 1 | 0.9 | 1 | 1.31 | 1.4 | 1.26 | 0.24 | Optical Density (OD) [25]: 1.34 OD; Fluorescence Intensity Geomean (normalized to background) [21]: 58.6 fold over background; Fluorescence Intensity Geomean (normalized to background) [22]: 1 fold over background; Fluorescence Intensity Geomean (normalized to background) [23]: 1 fold over background; Fluorescence Intensity Geomean (normalized to background) [24]: 1.1 fold over background |
| B3 | 1.12 | 1.04 | 5.4 | 1.12 | 0.79 | 1.41 | 1.19 | 20.6 | 12.4 | 15.6 | 25.4 | 18.9 | 4.3 | 1.1 | 1.1 | 1.1 | 1.4 | 16.3 | 1.36 | 0.66 | Optical Density (OD) [25]: 1.14 OD; Fluorescence Intensity Geomean (normalized to background) [21]: 30.8 fold over background; Fluorescence Intensity Geomean (normalized to background) [22]: 0.9 fold over background; Fluorescence Intensity Geomean (normalized to background) [23]: 1 fold over background; Fluorescence Intensity Geomean (normalized to background) [24]: 1 fold over background |
